We go through 14 molecules from paper PMC8602628, “Phosphorylation activates the yeast small heat shock protein Hsp26 by weakening domain contacts in the oligomer ensemble” (Nature Communications, 2021).

Data set [1] deals with T1, authentic Hsp26 from yeast (S. cerevisiae), P15992.
T1 chain: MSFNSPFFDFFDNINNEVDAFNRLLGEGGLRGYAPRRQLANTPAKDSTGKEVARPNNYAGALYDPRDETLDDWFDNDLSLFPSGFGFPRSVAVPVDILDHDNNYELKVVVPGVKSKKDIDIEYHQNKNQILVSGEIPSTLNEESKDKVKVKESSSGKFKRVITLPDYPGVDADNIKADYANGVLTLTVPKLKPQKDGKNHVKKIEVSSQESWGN
Briefly: cryo-EM structure; 2.0-3.3 mg/ml protein plunge-frozen, Titan Krios 300 kV, K2; 2D class averages (IMAGIC) compared with 40mer reprojections, 3D reconstruction in cryoSPARC. As to conditions: remark: other sources report otherwise.

Data set [2] deals with the molecule itself. The data set is described as above.
Data set [3] has as its target Hsp26 FRET complex (5 µM LYI-labeled and 5 µM AIAS-labeled Hsp26 S5C, pre-formed at 40 °C) (S. cerevisiae) (UniProt P15992). Description: FRET or BRET; subunit exchange: unlabeled Hsp26 in 39-fold molar excess added to the pre-formed FRET complex, 40 °C, decrease of acceptor fluorescence at 520 nm for 1500 s, exponential fit, kexchange = 1/t1.
Data set [4] deals with the molecule itself. Description: CD thermal transition; far-UV CD at 218 nm, 12.5 µM protein in PBS, 20 to 90 °C at 1 K/min; the lower transition is taken as the disassembly of the oligomer.
Data set [5] concerns the molecule itself. Description: cryo-EM structure; S207E dataset; asymmetric heterogeneous refinement (3D classification) in cryoSPARC into 13 classes; class C13.
Data set [6] concerns the molecule itself. Briefly: AUC; sedimentation velocity, 23 µM protein, 35,000 rpm (98,500 × g), 20 °C, PBS, absorbance at 280 nm, c(S) distribution in SEDFIT.
Data set [7] concerns the molecule itself. Description: SEC; analytical SEC-HPLC, Superdex200 increase 10/300GL, PBS, 0.5 ml/min, RT, 20 µl of a 20 µM protein solution loaded. For orientation: SEC sorts molecules by how far they enter the pores of the column.

B1: authentic Hsp26 from yeast, P15992 1-214 (natural protein)
chain: MSFNSPFFDFFDNINNEVDAFNRLLGEGGLRGYAPRRQLANTPAKDSTGKEVARPNNYAGALYDPRDETLDDWFDNDLSLFPSGFGFPRSVAVPVDILDHDNNYELKVVVPGVKSKKDIDIEYHQNKNQILVSGEIPSTLNEESKDKVKVKESSSGKFKRVITLPDYPGVDADNIKADYANGVLTLTVPKLKPQKDGKNHVKKIEVSSQESWGN
What is called stoichiometry N is the number of molecules, sites or subunits per partner or assembly. On to B1, for which the stoichiometry N in data set [1] was 40.

B2: Hsp26 wild-type (WT) protein, recombinant (natural protein, S. cerevisiae)
chain: MGSFNSPFFDFFDNINNEVDAFNRLLGEGGLRGYAPRRQLANTPAKDSTGKEVARPNNYAGALYDPRDETLDDWFDNDLSLFPSGFGFPRSVAVPVDILDHDNNYELKVVVPGVKSKKDIDIEYHQNKNQILVSGEIPSTLNEESKDKVKVKESSSGKFKRVITLPDYPGVDADNIKADYANGVLTLTVPKLKPQKDGKNHVKKIEVSSQESWGN
notes: Hsp26, small heat shock protein of S. cerevisiae; HSP26 cloned into pQE60 with NcoI and HindIII, which adds a glycine after the start methionine; Forms an ensemble of oligomers, predominantly a 40mer; also called Hsp26 WT; source: E. coli HB101, purified (Q-Sepharose, Superdex200, Resource Q)
B2: in data set [2], the “fraction of particles representing 40mer views” value (from here on “fraction”) came to 48.9% and the “stoichiometry N” value is 40. The exchange constant in data set [3] turned out to be 0.0032 s⁻¹. In addition, the “dissociation temperature of the oligomer” value in data set [4] is 42.1 °C.

B3: Hsp26 S207E (natural protein, S. cerevisiae, UniProt P15992 1-214, looked up)
chain: MGSFNSPFFDFFDNINNEVDAFNRLLGEGGLRGYAPRRQLANTPAKDSTGKEVARPNNYAGALYDPRDETLDDWFDNDLSLFPSGFGFPRSVAVPVDILDHDNNYELKVVVPGVKSKKDIDIEYHQNKNQILVSGEIPSTLNEESKDKVKVKESSSGKFKRVITLPDYPGVDADNIKADYANGVLTLTVPKLKPQKDGKNHVKKIEVESQESWGN
notes: an additional glycine stands after the start methionine; phospho-mimetic mutant of the C-terminal region; predominant species a 40mer, one 3D class a 42mer; source: E. coli HB101, purified (Q-Sepharose, Superdex200, Resource Q)
Regarding B3, the “stoichiometry N” value in data set [5] came out at 42.

B4: Hsp26 T42E (natural protein, S. cerevisiae)
chain: MGSFNSPFFDFFDNINNEVDAFNRLLGEGGLRGYAPRRQLANEPAKDSTGKEVARPNNYAGALYDPRDETLDDWFDNDLSLFPSGFGFPRSVAVPVDILDHDNNYELKVVVPGVKSKKDIDIEYHQNKNQILVSGEIPSTLNEESKDKVKVKESSSGKFKRVITLPDYPGVDADNIKADYANGVLTLTVPKLKPQKDGKNHVKKIEVSSQESWGN
notes: Hsp26 of S. cerevisiae, phospho-mimetic mutant in pQE60::HSP26; source: E. coli HB101, purified (Q-Sepharose, Superdex200, Resource Q)
For B4, in data set [4], the “dissociation temperature of the oligomer” value was less than 40 °C.

B5: Hsp26 T48E (natural protein, S. cerevisiae)
chain: MGSFNSPFFDFFDNINNEVDAFNRLLGEGGLRGYAPRRQLANTPAKDSEGKEVARPNNYAGALYDPRDETLDDWFDNDLSLFPSGFGFPRSVAVPVDILDHDNNYELKVVVPGVKSKKDIDIEYHQNKNQILVSGEIPSTLNEESKDKVKVKESSSGKFKRVITLPDYPGVDADNIKADYANGVLTLTVPKLKPQKDGKNHVKKIEVSSQESWGN
notes: as for B4
As for B5, in data set [4], the “dissociation temperature of the oligomer” value was less than 40 °C.

B6: Hsp26 S47E (natural protein, S. cerevisiae)
chain: MGSFNSPFFDFFDNINNEVDAFNRLLGEGGLRGYAPRRQLANTPAKDETGKEVARPNNYAGALYDPRDETLDDWFDNDLSLFPSGFGFPRSVAVPVDILDHDNNYELKVVVPGVKSKKDIDIEYHQNKNQILVSGEIPSTLNEESKDKVKVKESSSGKFKRVITLPDYPGVDADNIKADYANGVLTLTVPKLKPQKDGKNHVKKIEVSSQESWGN
notes: as for B4
For the molecule B6, the binding result in data set [6] is “binds”.

B7: Hsp26 S211E (natural protein, S. cerevisiae)
chain: MGSFNSPFFDFFDNINNEVDAFNRLLGEGGLRGYAPRRQLANTPAKDSTGKEVARPNNYAGALYDPRDETLDDWFDNDLSLFPSGFGFPRSVAVPVDILDHDNNYELKVVVPGVKSKKDIDIEYHQNKNQILVSGEIPSTLNEESKDKVKVKESSSGKFKRVITLPDYPGVDADNIKADYANGVLTLTVPKLKPQKDGKNHVKKIEVSSQEEWGN
notes: as for B4
For B7, the binding result in data set [7] was “binds”.

B8: Hsp26 S47E/T48E (natural protein, S. cerevisiae)
chain: MGSFNSPFFDFFDNINNEVDAFNRLLGEGGLRGYAPRRQLANTPAKDEEGKEVARPNNYAGALYDPRDETLDDWFDNDLSLFPSGFGFPRSVAVPVDILDHDNNYELKVVVPGVKSKKDIDIEYHQNKNQILVSGEIPSTLNEESKDKVKVKESSSGKFKRVITLPDYPGVDADNIKADYANGVLTLTVPKLKPQKDGKNHVKKIEVSSQESWGN
notes: Hsp26 of S. cerevisiae, phospho-mimetic double mutant in pQE60::HSP26; source: E. coli HB101, purified (Q-Sepharose, Superdex200, Resource Q)
For B8, in data set [2], the “fraction” value stood at 7.3% and the “stoichiometry N” value came to 40. The molecule also came in with an exchange constant in data set [3] of 0.004 s⁻¹. Further, in data set [4], the “dissociation temperature of the oligomer” value stood at 36.8 °C.

B9: Hsp26 S208E (natural protein, S. cerevisiae)
chain: MGSFNSPFFDFFDNINNEVDAFNRLLGEGGLRGYAPRRQLANTPAKDSTGKEVARPNNYAGALYDPRDETLDDWFDNDLSLFPSGFGFPRSVAVPVDILDHDNNYELKVVVPGVKSKKDIDIEYHQNKNQILVSGEIPSTLNEESKDKVKVKESSSGKFKRVITLPDYPGVDADNIKADYANGVLTLTVPKLKPQKDGKNHVKKIEVSEQESWGN
notes: as for B4
Consider B9, for which the “dissociation temperature of the oligomer” value in data set [4] is less than 40 °C.

B10: Hsp26 S144E (natural protein, S. cerevisiae)
chain: MGSFNSPFFDFFDNINNEVDAFNRLLGEGGLRGYAPRRQLANTPAKDSTGKEVARPNNYAGALYDPRDETLDDWFDNDLSLFPSGFGFPRSVAVPVDILDHDNNYELKVVVPGVKSKKDIDIEYHQNKNQILVSGEIPSTLNEEEKDKVKVKESSSGKFKRVITLPDYPGVDADNIKADYANGVLTLTVPKLKPQKDGKNHVKKIEVSSQESWGN
notes: as for B4
In the case of B10, the exchange constant in data set [3] was 0.0032 s⁻¹. In addition, in data set [4], the “dissociation temperature of the oligomer” value turned out to be 35.1 ± 0.1 °C.

B11: Hsp26 S207E (natural protein, S. cerevisiae)
chain: MGSFNSPFFDFFDNINNEVDAFNRLLGEGGLRGYAPRRQLANTPAKDSTGKEVARPNNYAGALYDPRDETLDDWFDNDLSLFPSGFGFPRSVAVPVDILDHDNNYELKVVVPGVKSKKDIDIEYHQNKNQILVSGEIPSTLNEESKDKVKVKESSSGKFKRVITLPDYPGVDADNIKADYANGVLTLTVPKLKPQKDGKNHVKKIEVESQESWGN
notes: as for B4
Consider B11, for which, in data set [2], the “fraction” value is 34.2% and the “stoichiometry N” value is 40.

B12: Hsp26 T163E (natural protein, S. cerevisiae)
chain: MGSFNSPFFDFFDNINNEVDAFNRLLGEGGLRGYAPRRQLANTPAKDSTGKEVARPNNYAGALYDPRDETLDDWFDNDLSLFPSGFGFPRSVAVPVDILDHDNNYELKVVVPGVKSKKDIDIEYHQNKNQILVSGEIPSTLNEESKDKVKVKESSSGKFKRVIELPDYPGVDADNIKADYANGVLTLTVPKLKPQKDGKNHVKKIEVSSQESWGN
notes: as for B4
The molecule B12 showed an exchange constant in data set [3] of 0.0036 s⁻¹. In data set [4], the “dissociation temperature of the oligomer” value was 34.6 ± 0.9 °C.

B13: Hsp26 S90E (natural protein, S. cerevisiae)
chain: MGSFNSPFFDFFDNINNEVDAFNRLLGEGGLRGYAPRRQLANTPAKDSTGKEVARPNNYAGALYDPRDETLDDWFDNDLSLFPSGFGFPREVAVPVDILDHDNNYELKVVVPGVKSKKDIDIEYHQNKNQILVSGEIPSTLNEESKDKVKVKESSSGKFKRVITLPDYPGVDADNIKADYANGVLTLTVPKLKPQKDGKNHVKKIEVSSQESWGN
notes: as for B4
In data set [3], B13 displayed an exchange constant of 0.004 s⁻¹. Besides, the “dissociation temperature of the oligomer” value in data set [4] was less than 40 °C.

B14: Hsp26 S208E/S211E (natural protein, S. cerevisiae)
chain: MGSFNSPFFDFFDNINNEVDAFNRLLGEGGLRGYAPRRQLANTPAKDSTGKEVARPNNYAGALYDPRDETLDDWFDNDLSLFPSGFGFPRSVAVPVDILDHDNNYELKVVVPGVKSKKDIDIEYHQNKNQILVSGEIPSTLNEESKDKVKVKESSSGKFKRVITLPDYPGVDADNIKADYANGVLTLTVPKLKPQKDGKNHVKKIEVSEQEEWGN
notes: Hsp26 of S. cerevisiae, phospho-mimetic double mutant in pQE60::HSP26; also called CTR double mutant; source: E. coli HB101, purified (Q-Sepharose, Superdex200, Resource Q)
Regarding B14, in data set [3], the exchange constant stood at 0.0036 s⁻¹. Moreover, the “dissociation temperature of the oligomer” value in data set [4] is less than 40 °C.
